According to the supplement of paper PMC9170038:

These sequences were tested on MS2 coat protein (assay: apparent KD of MS2 coat protein; higher = weaker reporter binding). Details: Eterna round: R107; input ligand: arginine 13.2 mM.
How it was run: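 Apparent KD is reported per design as the median of normalised binding-curve fits across its clusters. The RNA switches were made by on-chip transcription from Illumina sequencing clusters. SNAP-549-labelled MS2 coat protein was then added in twofold steps (0.7 or 1.5 nM to 3 µM; 0.8–1.5 h to 10–20 min per step) in 100 mM Tris-HCl pH 7.5, 80 mM KCl, 4 mM MgCl2, without or with constant ligand.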

Sequence | apparent KD of MS2 coat protein
ACACAUGAGGAUCACCCAUGUUGCAUAGAUACCAGAUAACGUGAGAUCCCUUGGCAGCUAACUGCAUGAACUUGACAUGCAUCAU [Same State Theophylline A 2] | 44.2 nM
GCUGGGUGCGCAAGGACCUGGCGUUGCGAUACCAGCACGGUAACGUGCCCUUGGCAGCGCACAUGAGGAUCACCCAUGUGGUGCG [#1 Exclusion - Theophylline A Attempt #21 (HarryS)] | 18.7 nM
UGUAUGUGAUCUGAUACCAGCGUUGAUAACCUGAGGAUCACCCUGGUAAGGCGAAAGCCACGCCCUUGGCAGCAGAUCGCAUACU | 158 nM
GCGAUGGAGCGAAGGAGCGGCUAAAUGUAACACAUGAGGAUCACCCAUGUUCCAAGAUGUGGCCAGGUAGGUCGCGCUCCAUCGC [SSAB NP+V+V2 #15] | 61.8 nM
CGAAUGAAGCAAGAUACCAGUGUAGAUUUAGACAUGAGGAUCACCCAUGUGAGGCAUGAGCACCCUUGGCAGCUUAAGCAGAAAA [theeternabot_sameState_MS2_Theo_B_47] | 115 nM
UCAUGCAGGUCGGCCGCCACUACACACAUGAGGAUCACCCAUGUAGUUACUGGGUGAAGUGGCAGUAGGACCGGGACCUGCAUAC [Brourdmod09] | 89.1 nM
ACUAGGCUCGGAAACGAGCCUAGGACAGAAGGAGCGUGGAUUAACACAGGUAGGUCGCUGACAUGAGGAUCACCCAUGUAUUAUU [SSAA #2] | 24.5 nM
UCACGACGCAACGUGAGAUAAUGAACAGAAGGAGCGAGGAGAGCCUCAGGUAGGUCGCUGACAUGAGGAUCACCCAUGUAUUACA [Same State Arginine A GF6] | 63.8 nM
CGGACAUGAGGAUCACCCAUGUACACUGAAGGAGCGUCGAGAACGACAGGUAGGUCGCAGGUUGAGGAAGGUGAUGCUCAAGAAG [Exclusion Arginine A GF4] | 25.1 nM
CUACAUUUGUAGAAACCGGUCAACAUUAUUCGAGGACCGGUACGGCCGCCACUCGUAUAAUUUAAUACAUGAGGAUCACCCAUGU [Tryptophan A 5] | 16.1 nM
GAAUAUUACAUGAGGAUCACCCAUGUAGAUACCAGCCUUGAUUGUGGCCCUUGGCAGCUACGCCGUGAAUGCCUCAGUUGCUUAC [Atidi] | 36.8 nM
GACAUGAGGAUCACCCAUGUACCGCGAGAAGGAGCGCGGAUAAACGCAGGUAGGUCGCUCGUGGGCUCACAUUCAAUCGUAAGCU [Azaesisma] | 50.9 nM
AGAUUCGACACGGCCGCCACUUGUGGUGGAUUAUCCUGUGUCGAACAUGAGGAUCACCCAUGUACAAGGACCGGGUGUUGAGUCU [XTryp B #20] | 60.2 nM
GGUGGCUGGACUGAUACCAGCCACCACCGAUAGACCACAUGAGGAUCACCCAUGUUGGGUGGCCCUUGGCAGCAGUCUAGCUGCC [#1 Same State - Theophylline B Attempt #11 (HarryS)] | 231 nM
AGACAUGAGGAUCACCCAUGUAGUACGGAUACCAGAUCCAGAUGUAUCCCUUGGCAGCUGUGGUACAGCGUUGCAACGCUCCUAG [Exclusion - Theophylline A (Freestyle 18)] | 15 nM
GAAGAGACCUCGGCCGCCACUCGCCAUGAGGAUCUCCCAUGUAACAUGAGGAUCACCCAUGUACAGAGGACCGGGAGGUCCUAGU [Same State Tryptophan B GF 14] | 12.8 nM

Same assay, conditions: Eterna round: R107; input ligand: none

Sequence | apparent KD of MS2 coat protein
GCGAUGGAGCGAAGGAGCGGCUAAAUGUAACACAUGAGGAUCACCCAUGUUCCAAGAUGUGGCCAGGUAGGUCGCGCUCCAUCGC [SSAB NP+V+V2 #15] | 175 nM
CGAAUGAAGCAAGAUACCAGUGUAGAUUUAGACAUGAGGAUCACCCAUGUGAGGCAUGAGCACCCUUGGCAGCUUAAGCAGAAAA [theeternabot_sameState_MS2_Theo_B_47] | 28.7 nM
UCAUGCAGGUCGGCCGCCACUACACACAUGAGGAUCACCCAUGUAGUUACUGGGUGAAGUGGCAGUAGGACCGGGACCUGCAUAC [Brourdmod09] | 591 nM
ACUAGGCUCGGAAACGAGCCUAGGACAGAAGGAGCGUGGAUUAACACAGGUAGGUCGCUGACAUGAGGAUCACCCAUGUAUUAUU [SSAA #2] | 24.9 nM
UCACGACGCAACGUGAGAUAAUGAACAGAAGGAGCGAGGAGAGCCUCAGGUAGGUCGCUGACAUGAGGAUCACCCAUGUAUUACA [Same State Arginine A GF6] | 82.8 nM
CGGACAUGAGGAUCACCCAUGUACACUGAAGGAGCGUCGAGAACGACAGGUAGGUCGCAGGUUGAGGAAGGUGAUGCUCAAGAAG [Exclusion Arginine A GF4] | 44.7 nM
GACAUGAGGAUCACCCAUGUACCGCGAGAAGGAGCGCGGAUAAACGCAGGUAGGUCGCUCGUGGGCUCACAUUCAAUCGUAAGCU [Azaesisma] | 98.6 nM
GAAGAGACCUCGGCCGCCACUCGCCAUGAGGAUCUCCCAUGUAACAUGAGGAUCACCCAUGUACAGAGGACCGGGAGGUCCUAGU [Same State Tryptophan B GF 14] | 21.2 nM

Same assay, conditions: Eterna round: R107; input ligand: theophylline 20 uM

Sequence | apparent KD of MS2 coat protein
ACACAUGAGGAUCACCCAUGUUGCAUAGAUACCAGAUAACGUGAGAUCCCUUGGCAGCUAACUGCAUGAACUUGACAUGCAUCAU [Same State Theophylline A 2] | 88.7 nM
GCUGGGUGCGCAAGGACCUGGCGUUGCGAUACCAGCACGGUAACGUGCCCUUGGCAGCGCACAUGAGGAUCACCCAUGUGGUGCG [#1 Exclusion - Theophylline A Attempt #21 (HarryS)] | 45.8 nM
UGUAUGUGAUCUGAUACCAGCGUUGAUAACCUGAGGAUCACCCUGGUAAGGCGAAAGCCACGCCCUUGGCAGCAGAUCGCAUACU | 79.1 nM
GCGAUGGAGCGAAGGAGCGGCUAAAUGUAACACAUGAGGAUCACCCAUGUUCCAAGAUGUGGCCAGGUAGGUCGCGCUCCAUCGC [SSAB NP+V+V2 #15] | 229 nM
CGAAUGAAGCAAGAUACCAGUGUAGAUUUAGACAUGAGGAUCACCCAUGUGAGGCAUGAGCACCCUUGGCAGCUUAAGCAGAAAA [theeternabot_sameState_MS2_Theo_B_47] | 25.7 nM
UCAUGCAGGUCGGCCGCCACUACACACAUGAGGAUCACCCAUGUAGUUACUGGGUGAAGUGGCAGUAGGACCGGGACCUGCAUAC [Brourdmod09] | 604 nM
ACUAGGCUCGGAAACGAGCCUAGGACAGAAGGAGCGUGGAUUAACACAGGUAGGUCGCUGACAUGAGGAUCACCCAUGUAUUAUU [SSAA #2] | 38.6 nM
UCACGACGCAACGUGAGAUAAUGAACAGAAGGAGCGAGGAGAGCCUCAGGUAGGUCGCUGACAUGAGGAUCACCCAUGUAUUACA [Same State Arginine A GF6] | 84.2 nM
